B1: 13C5.5, humanized recombinant immunoglobulin IgG1 (IgG1, κ) monoclonal antibody (antibody, V domains shown)
VH: EVTLRESGPGLVKPTQTLTLTCTLYGFSLSTSDMGVDWIRQPPGKGLEWLAHIWWDDVKRYNPALKSRLTISKDTSKNQVVLKLTSVDPVDTATYYCARTVSSGYIYYAMDYWGQGTLVTVSS
VL: DIQMTQSPSSLSASVGDRVTISCRASQDIRNYLNWYQQKPGKAPKLLIFYTSKLHSGVPSRFSGSGSGTDYTLTISSLQPEDIATYYCQQGNTLPLTFGGGTKVEIK
B2: 5G1 (antibody, V domains shown)
VH: QVQLQQSGAELARPGTSVKLSCKASGYTFTTYGVSWVKQRTGQGLEWIGEIYPGNYNTYYNEKFRGKATLTADKSSSTAYMQLSSLTSEDSAVYFCSRWRTSYFSDYGYFDYWGQGTTLTVSS
VL: DVVMTQTPLSLPVSLGDQASISCRSSQSLVHSHGNTYLHWYLQKPGQSPKLLIYTVSNRFSGVPDRFSGSGSGTDFTLKISRVEAEDLGVYFCSQSTHVPYTFGGGTKLEIKR
B3: 9C11 (antibody, V domains shown)
VH: QVRLQQPGAELVRPGASVKLSCKASGYTFTSSWIHWVNQRPGQGLEWIGMIHPSDSETRLNQKFKDKATLTVDKSSSTAYMQLSSPTSEDSAVYYCASTATDFDYWGQGTTLTVSS
VL: DVVLTQTPLSLPVNIGDQASISCRSTQTLLNSDGFTYLDWYLQKPGQSPQLLIYLVSNRFSGVPDRFSGSGSGTDFTLKISRVEAEDLGVYYCFQNNYLPLTFGAGTKLELKR
B4: Fab portion of 13C5.5 antibody (Fab, V domains shown)
VH: B1 VH
VL: B1 VL
notes: Fab used for the crystal structure with human IL-13; also called 13C5.5 Fab

Tests used:
cynomolgus monkey rIL-13 [1] = target: T1, cynomolgus monkey rIL-13 (cynomolgus monkey, UniProt Q0PW92 21-132); experiment: cell-based or functional assay
T1 sequence (Q0PW92 entry or part of it): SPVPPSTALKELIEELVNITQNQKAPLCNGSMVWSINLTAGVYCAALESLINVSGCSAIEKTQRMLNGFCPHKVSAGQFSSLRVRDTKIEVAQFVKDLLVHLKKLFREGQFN

rat rIL-13 = target: T2, rat rIL-13 (rat, UniProt P42203 19-131, limits assumed); experiment: cell-based or functional assay
T2 sequence (looked up): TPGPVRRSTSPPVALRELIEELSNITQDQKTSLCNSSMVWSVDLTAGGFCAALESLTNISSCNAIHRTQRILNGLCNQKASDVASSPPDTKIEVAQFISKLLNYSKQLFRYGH

[2] = target: T3, human IL-13 variant (R130Q) (human, UniProt P35225 35-146, limits assumed); experiment: column 'Affinity, KD (nM)', hIL-13v; method not given
T3 construct: also called variant IL-13
T3 sequence (P35225 35-146 limits assumed, stated change not applied): as the sequence (Q0PW92 entry or part of it) above, with S1G, K10R, V42M, N67S, R83H, V100L counted along it

human IL-13 wild type [3] = target: T4, human IL-13 wild type (human, UniProt P35225 35-146, limits assumed); experiment: column 'Affinity, KD (nM)', hIL-13wt; method not given
T4 construct: also called IL-13 wt; rh IL-13
T4 sequence (P35225 other isoform, or with tags, fused parts or gaps limits assumed): as the sequence (Q0PW92 entry or part of it) above, with S1G, K10R, V42M, N67S, R83H, V100L, Q110R counted along it

cynomolgus monkey rIL-13 [4] = target: T1, cynomolgus monkey rIL-13; experiment: cell-based or functional assay; remark: listed apart in the source
human IL-13 wild type [5] = target: T4, human IL-13 wild type; experiment: cell-based or functional assay
[6] = target: T3, human IL-13 variant (R130Q); experiment: cell-based or functional assay
human IL-13 wild type [7] = target: T4, human IL-13 wild type; experiment: crystal structure of the complex

Binder	fold lower in vitro potency compared to human rIL-13 (cynomolgus monkey rIL-13 [1])	half maximal inhibitory concentration (IC50), in vitro neutralization (cynomolgus monkey rIL-13 [1])	IC50, in vitro neutralization (rat rIL-13)	fold lower in vitro potency compared to human rIL-13 (rat rIL-13)	Kd [2]	Kd (human IL-13 wild type [3])	Potency, IC50 (neutralisation of Cyno IL-13; assay not given) (cynomolgus monkey rIL-13 [4])	Potency, IC50 (neutralisation of hIL-13wt; assay not given) (human IL-13 wild type [5])	Potency, IC50 (neutralisation of hIL-13v; assay not given) [6]	binding result (human IL-13 wild type [7])
B1	51 fold	4.1 nM	12.4 nM	155 fold						
B2					0.13 nM	0.008 nM	0.612 nM	0.076 nM	0.048 nM	
B3					0.092 nM	0.112 nM	0.64 nM	0.184 nM	0.17 nM	
B4										binds
